Values belong to the molecule of their own block, whether it stands above or below them.
Key:
APC PBM (Homo sapiens) = APC PBM (Homo sapiens) (UniProt P25054); conditions: cited from earlier work
[1] = molecular target: T1, human Scribble PDZ domain 3 (hScrib/PDZ3, AA 1005-1094) (human, UniProt Q14160 1005-1094); assay: ITC; purified PDZ domain at 75 uM against the 8-mer peptide at 900-1100 uM, 20 injections, 25 °C, 25 mM Tris-HCl pH 8.0, 150 mM NaCl, 5 mM TCEP, one-site binding model; conditions: both partners purified
T1 construct: human Scribble (Scrib), PDZ domain 3, residues 1005-1094; source: E. coli BL21 (DE3) CodonPlus or pLysS, purified, tag cleaved
T1 sequence (looked up): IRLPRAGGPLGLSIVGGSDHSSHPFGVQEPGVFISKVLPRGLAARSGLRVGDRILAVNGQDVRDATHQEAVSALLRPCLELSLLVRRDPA

[2] = molecular target: T2, human Scribble PDZ domain 1 (hScrib/PDZ1, AA 728-815) (human, UniProt Q14160 728-815); assay: as above; conditions: both partners purified
T2 construct: human Scribble (Scrib), PDZ domain 1, residues 728-815; source: E. coli BL21 (DE3) CodonPlus or pLysS, purified, tag cleaved
T2 sequence (Q14160 728-815): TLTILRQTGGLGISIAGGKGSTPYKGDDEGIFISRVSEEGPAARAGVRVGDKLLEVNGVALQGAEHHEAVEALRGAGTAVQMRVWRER

[3] = molecular target: T3, hScrib/PDZ3 (AA 1005-1094) (human, UniProt Q14160 1005-1094); assay: ITC; peptide (900-1100 µM) titrated into PDZ domain (75 µM); 25 mM Tris-HCl pH 8.0, 150 mM NaCl, 5 mM TCEP; 25 °C; 20 injections; one-site binding model; conditions: both partners purified
T3 construct: Scribble, human, PDZ3 domain, AA 1005-1094; In pGEX-6P-3 or pGIL-MBP; source: E. coli BL21 (DE3) CodonPlus or pLysS, purified
T3 sequence (looked up): T1 sequence (looked up)

hScrib/PDZ1 (AA 728-815) = molecular target: T4, hScrib/PDZ1 (AA 728-815) (human, UniProt Q14160 728-815); assay: as above; conditions: both partners purified
T4 construct: Scribble, human, PDZ1 domain, AA 728-815; In pGEX-6P-3 or pGIL-MBP; also called PDZ domain 1 of Scrib; source: E. coli BL21 (DE3) CodonPlus or pLysS, purified
T4 sequence (Q14160 728-815): as above

APC PBM (Homo sapiens), sequence (P25054 whole entry, looked up, the tested form may be a part): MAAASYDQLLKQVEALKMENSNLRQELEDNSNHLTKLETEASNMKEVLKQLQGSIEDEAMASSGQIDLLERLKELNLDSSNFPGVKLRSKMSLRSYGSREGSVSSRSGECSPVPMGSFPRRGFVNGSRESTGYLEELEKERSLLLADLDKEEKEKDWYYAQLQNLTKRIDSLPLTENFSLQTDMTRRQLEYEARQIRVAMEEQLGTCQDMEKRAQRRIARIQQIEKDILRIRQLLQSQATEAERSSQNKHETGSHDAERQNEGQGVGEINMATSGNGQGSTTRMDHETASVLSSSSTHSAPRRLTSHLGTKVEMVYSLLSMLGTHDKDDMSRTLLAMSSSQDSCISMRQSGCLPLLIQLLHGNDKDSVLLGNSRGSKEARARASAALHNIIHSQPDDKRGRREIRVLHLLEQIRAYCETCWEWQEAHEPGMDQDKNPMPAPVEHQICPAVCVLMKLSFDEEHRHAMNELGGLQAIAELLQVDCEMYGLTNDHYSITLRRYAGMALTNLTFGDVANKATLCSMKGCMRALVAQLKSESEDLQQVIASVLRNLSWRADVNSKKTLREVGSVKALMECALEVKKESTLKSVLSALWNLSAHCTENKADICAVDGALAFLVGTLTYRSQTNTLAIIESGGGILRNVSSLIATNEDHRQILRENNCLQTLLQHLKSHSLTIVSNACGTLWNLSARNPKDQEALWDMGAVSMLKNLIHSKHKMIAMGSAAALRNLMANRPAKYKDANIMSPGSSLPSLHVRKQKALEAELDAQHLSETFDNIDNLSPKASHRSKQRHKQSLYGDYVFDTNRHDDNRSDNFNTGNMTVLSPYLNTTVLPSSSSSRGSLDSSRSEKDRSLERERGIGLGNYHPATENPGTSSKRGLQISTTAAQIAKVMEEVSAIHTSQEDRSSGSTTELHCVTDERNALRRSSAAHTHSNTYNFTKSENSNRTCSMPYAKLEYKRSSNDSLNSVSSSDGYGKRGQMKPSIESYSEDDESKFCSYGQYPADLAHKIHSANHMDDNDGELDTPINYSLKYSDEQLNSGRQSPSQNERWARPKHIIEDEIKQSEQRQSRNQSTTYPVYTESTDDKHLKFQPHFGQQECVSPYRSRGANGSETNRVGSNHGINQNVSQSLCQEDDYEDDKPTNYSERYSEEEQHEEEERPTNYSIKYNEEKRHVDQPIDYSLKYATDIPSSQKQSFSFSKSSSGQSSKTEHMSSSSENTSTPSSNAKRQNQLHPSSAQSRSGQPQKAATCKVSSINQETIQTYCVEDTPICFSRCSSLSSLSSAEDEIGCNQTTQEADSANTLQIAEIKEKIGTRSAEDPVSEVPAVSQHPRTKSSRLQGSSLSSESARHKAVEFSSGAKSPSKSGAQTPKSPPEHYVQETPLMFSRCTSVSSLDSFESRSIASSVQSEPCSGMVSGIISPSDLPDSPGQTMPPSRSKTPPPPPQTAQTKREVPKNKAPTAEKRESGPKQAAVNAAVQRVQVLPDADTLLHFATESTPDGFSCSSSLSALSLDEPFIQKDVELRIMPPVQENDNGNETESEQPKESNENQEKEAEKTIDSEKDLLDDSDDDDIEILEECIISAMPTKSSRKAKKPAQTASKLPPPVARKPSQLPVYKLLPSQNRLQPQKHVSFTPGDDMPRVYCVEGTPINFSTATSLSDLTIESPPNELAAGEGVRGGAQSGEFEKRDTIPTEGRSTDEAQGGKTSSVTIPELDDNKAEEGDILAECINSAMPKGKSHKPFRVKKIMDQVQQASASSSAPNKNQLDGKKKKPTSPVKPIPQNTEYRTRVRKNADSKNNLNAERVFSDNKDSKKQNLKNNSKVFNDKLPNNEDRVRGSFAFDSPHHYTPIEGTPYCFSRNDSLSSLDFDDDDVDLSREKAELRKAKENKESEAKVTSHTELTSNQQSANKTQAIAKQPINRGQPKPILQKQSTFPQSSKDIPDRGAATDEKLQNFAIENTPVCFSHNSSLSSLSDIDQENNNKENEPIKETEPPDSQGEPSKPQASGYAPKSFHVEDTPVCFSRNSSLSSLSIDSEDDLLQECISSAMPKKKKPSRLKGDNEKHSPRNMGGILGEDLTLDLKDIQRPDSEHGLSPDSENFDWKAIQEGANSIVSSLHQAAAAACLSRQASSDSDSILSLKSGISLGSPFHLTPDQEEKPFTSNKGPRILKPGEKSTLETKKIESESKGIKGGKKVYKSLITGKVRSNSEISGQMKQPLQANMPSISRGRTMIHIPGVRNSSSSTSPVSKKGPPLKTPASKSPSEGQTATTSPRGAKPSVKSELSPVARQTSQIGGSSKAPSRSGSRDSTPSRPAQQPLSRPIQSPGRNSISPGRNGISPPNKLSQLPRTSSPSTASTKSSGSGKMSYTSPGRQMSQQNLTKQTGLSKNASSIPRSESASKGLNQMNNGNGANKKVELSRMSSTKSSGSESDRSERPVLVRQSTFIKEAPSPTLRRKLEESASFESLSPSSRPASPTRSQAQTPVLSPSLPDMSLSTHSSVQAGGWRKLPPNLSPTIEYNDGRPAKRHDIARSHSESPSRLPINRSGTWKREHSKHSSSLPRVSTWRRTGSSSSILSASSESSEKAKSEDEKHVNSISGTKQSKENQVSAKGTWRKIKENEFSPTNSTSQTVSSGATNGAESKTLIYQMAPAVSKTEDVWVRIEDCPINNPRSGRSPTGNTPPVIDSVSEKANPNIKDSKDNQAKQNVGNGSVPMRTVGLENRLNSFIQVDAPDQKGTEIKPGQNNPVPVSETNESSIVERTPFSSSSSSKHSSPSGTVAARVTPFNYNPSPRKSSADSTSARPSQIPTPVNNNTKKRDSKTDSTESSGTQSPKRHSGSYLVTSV

Molecule: Scribble PDZ1 (from UniProt Q14160)
Kd (APC PBM (Homo sapiens)): 6 µM

stoichiometry N [1]: 0.93 ± 0.04
stoichiometry N [2]: 0.95 ± 0.07
B1: C-terminally derived 8-mer human TMIGD1 peptide (peptide)
peptide: DPHSETAL
notes: also called TMIGD1/WT; TMIGD1 PBM peptide; source: synthetic peptide, obtained from Genscript

Kd [3]: 9.12 µM
Kd (hScrib/PDZ1 (AA 728-815)): 18.2 µM
B2: C-terminally derived 8-mer human TMIGD1 peptide (DPHSETAL) (peptide)
peptide: DPHSETAL
notes: TMIGD1, human, the eight C-terminal residues with the PBM (SETAL), free C-terminal carboxyl; also called TMIGD1/WT; TMIGD1 PBM peptide; source: synthetic peptide (Genscript)

— PMC10333293, “Membrane recruitment of the polarity protein Scribble by the cell adhesion receptor TMIGD1” (Communications Biology, 2023)
